Among the data in publication PMC7695167, “Targeting the Interaction between the SH3 Domain of Grb2 and Gab2” (Cells, 2020) are Kd values, retold here.

The assay concerns the target Gab2 503-524 (Homo sapiens), Q9UQC2.

Several values for one entry are separate records, joined by “and”; a condition that tells them apart may be missing. Equal values may be shown once.

Chain of Gab2 503-524 (Homo sapiens), Q9UQC2 (Q9UQC2 503-524): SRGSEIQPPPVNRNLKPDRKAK

B1: Grb2 C-SH3, P62993 (protein)
chain: QQPTYVQALFDFDPQEDGELGFRRGDFIHVMDNSDPNWWKGACHGQTGMFPRNYVTPVNR
With B1, the Kd was 100 µM and 22 µM.
